Assay results: the domain aggregation screens of Martell et al. (2025)

Test: soluble fraction after stress (log2 fold change); higher = more stays soluble; pooled small domains, quantitative proteomics
Conditions: stress: pH 4
Summary of the method: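 Pooled custom libraries of small protein domains were stressed at pH 4 and then measured by high-throughput quantitative proteomics. The fold change in the amount of each domain that stays soluble after the acid stress serves as a measure of aggregation propensity. Fold changes are given on a log2 scale, and higher values mean more of the domain stayed soluble.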

Point of comparison: “HMTPQDYEYLRKLLKDQSGLDLSVDKQYLLESRLVPLSRKAGLAGIPELVQKMKAGSASLTAQVVEAMTT”, “soluble fraction (log2)” value 0.07. Against it:
- HMTIKNHIDEILKKEPFILENIKNGLINISALARQIEPQLSRKVGKKLNVNAIIMTIKRMEIDQLNK — within 0.2 log units, 0.0888
- HMTIPNGTVVNGTVLEAREAGAYLVRVAGQTLTAQANLPLLVGQHFRAVWDSSGDIPVLRLSDAEQALLGK — within 0.2 log units, -0.121
- HMTIPRLPFAFAKRFGIVLDNRPSGFVAAHKEGLLPHVLLEVQRFLGDAYTLEVVSDDDFERILGQVYQT — lower, -2.03
- HMTIPSYAEAVRYVRRQPRINTSTLADGLGIRWSLALDYLERMARSGVVGAIEDDGWWPVAR — higher, 0.329
- HMTIRIPEEEYLTRAKRAAQMTAERGLDALFLFGSEGDFQNVRYFTSVTPIWERLGVVITASGKAAMLTGP — within 0.2 log units, -0.0548
- HMTIRPEDVELVPAEDGYMQGDVVSNIFKGVHYELEVKANGYDWMVHTTKYVEVGSHVGIKVIPFNIQV — within 0.2 log units, 0.22
- HMTISPYTKDDFLKGTKPFEDVYAHKADPFVHDRALEQMTIWAKSVGVNGFKKLYKAYIDSLRIKNKEI — within 0.2 log units, 0.00637
- HMTKAGVDAWTRGDYAAAVKEWQAQAAKGDADAIFNLGQAFKLGKGVPQDLIKAEQLFGQAAA — lower, -0.466
- HMTKDEIIIQSIIDAAKKLMQQYGLNKTTMEDIAKEAGKGKSTLYHYFKSKEEIFDQVINQEID — lower, -1.06
- HMTKEEFLDEIKKELGFMPYEEVIKAEKYFESYFNGSEADEKVIERFGSPKYAAQNYYRTHVAN — within 0.2 log units, 0.0371
- HMTKEEFLYELKKELSALDSAEATAYNLRYYSDYIDAEIAKGRSEQEVLDELGNPRWLVNSIKESG — lower, -0.521
- HMTKGDRIKARREELGLTQTDLAEAISSTKQNIYKYENNIISNIPSDKVEAIAEVLKISPAYLMGWGDE — lower, -0.594
- HMTKGFSIQDISLSKSTMTFLQQNKITDLASLLSMSKSQIEGMKGFKPKMIQEIEKNLDKVGLVLAQD — lower, -0.228
- HMTKGVKVEIGTEEASVDLYVVMEYGTPIQKAAYDAQESVRKAIETMTNLHVVRVDVHVQGVSF — higher, ≥ 0.43
- HMTKGVWHTVKKGENLYRISLYYEVPQQEIKKANKIETENIVVGQKLFIPNTTKKSPIFALTP — within 0.2 log units, -0.0478
- HMTKIDYSINQIYSLRNIENITIVLKDKRSFTGKILKIYWQNGSKIILFTTETRNYKFKEYEISEIYKS — lower, -0.706
- HMTKIEYTEQEFNDFIQAYKNNRKMFPEDYIVKTQVVFINKGFSKSQADMIIAQIETRLRLQGE — lower, -0.378
- HMTKIKAIFFDIDGTIRSFKTKTIPENTANTLKKLKEQGIKIFIATGRAPFHTTFLNDLLDFKFDGYITIN — within 0.2 log units, -0.0405
- HMTKKSLFNQYLDDQKRLDIVTLQKAELVDLHKLADELNIDQYNQLKKNELIFKILQSNPSE — lower, -0.361
- HMTKNEFLQGLKEELEGRVTHSAIQENIRYYDDYISQEVLKGSTEEEVTESLGGPRIIARTIVDAAYD — lower, -2.29
- HMTKPLHELLSQREFQVFTQLAAGRSVGEIAQQLSLSSNTVSTYRARILEKTGTRNDVELALYAIRR — lower, -0.231
- HMTKPTLMEVEIKGAIQNPGVYTLKRNSSISKLIKMSGPLLENADTSSISFTHILQDKDVVVIPEIK — lower, -0.177
- HMTKQEYLNQLKNELVKQGVADAEDVVTEYEQHFAFKLADGFGEEEIAKKLGDPAAIASQFVG — lower, -1.16
- HMTKQMELLAQGAAKLSVDLNQRQLDQLQTYYRELVDWNQRMNLTAITQYEEVQVKHFLDSL — lower, -0.294
- HMTKRKNTEFRQQQIIEAAAKLIFKYGSEHLTVKRIAAQVGISEAAIYRHFTSKKSILSFLLSHIEE — lower, -0.317
- HMTKRTVKSVARKIADFNRERHRMPTYEEMLTLLAVRSKSVVHFWMNKLLQEGILEKDESGHLTFV — within 0.2 log units, 0.14
- HMTKSSAYLSAEKLINKKQYSDAIVKLNDALVTDSKNADIYNYLGFSHRKLGKMEDAAFFYNKALE — lower, -0.165
- HMTLDDSFYQKADEIIANHTKEERSLIPIIQDIQAEYRYLPPELLTYVAKEIGITDARAYSVASFYENFS — lower, -1.21
- HMTLDEDYFYYTLKAKEGYYRLYKKLGVDRKIIDSLNPNLKEMGLQVGMVIRVPKSQTSDLSVKNSLLVE — lower, -0.61
- HMTLHDLFPQAVEFVSEKEMISTAELQRKLMISYNSAAKIIDQLLHVDFIQKSESAGKYSVLIK — lower, -0.486
- HMTLNTQLFTWKKGVRVGEDDQGNIYYRTKDDKRRWVIFTGETEATKVSPDWHGWLHRTWATPPNK — lower, -0.14
- HMTLPGQDFIRASQLKELIAKYDKQYYEEGVSDISDAEYDRLYEEYLEFENKYPELKDMADAPTKRV — lower, -0.661
- HMTLREQISALIKQGKLTQAKLARETGVNGGALSAWINGKYTGNVETVEEPIKHWMALNERK — higher, ≥ 0.43
- HMTLSVRQRMSQIINKIDVSNFTDFTKLFDINEGRLGVAVTFLAILELLKDTMIDVIQNEEFAPLHIKVSS — lower, -0.339
- HMTMIIQLDKNITQEQRQFLVEELNRLSISPNFVSTQFTNYIVGIPKKEFDIRLIGNLPGIADIHFV — lower, -0.269
- HMTMKVTADILNMRSEASTNSDIVTKLKKDDELKVIEETKDDDGVTWVKVDFNGQVGFVSKEFLG — lower, -0.623
- HMTMLLEYNVSRSSKWMNKTIMDAEIPDDILIVMIKRNGQVIVPKGSTEILENDILVLSGNNLNEVALG — lower, -1.46
- HMTMNYYDILSIKRDATLEEIQKAYKEKSFQFHPDFNKGISDDSMFRIIKEAYETLSDTEKRNQYDASLNK — lower, -0.134
- HMTMQTAEQESRLEQKLIDLSVGIDRFEGYSRPHGQLIASIADRIGTRLGMAAHDRFYMQQAAL — within 0.2 log units, -0.0547
- HMTNADRFIGEEAMVIKKIDDINNDGQVKIAGQVWSAVSEDKSPLEEGTIVKVIAIRGVKLVVEPVS — within 0.2 log units, 0.0967
- HMTNALDMMKTMDSDAYTKYQKISKESSNEDRQLNELKYITNWYAGAVKKNPSMVDDYEKQKEADS — within 0.2 log units, 0.162
- HMTNELTEIFNSIRLTKKQKELLQSNYLSLRETYFLQGKTAFNLKFKNIAGLGKSTKKVLLEFFEESIE — lower, -0.499
- HMTNIDIEKSIKNTITANYDDVLNYHNEDDNKTFASGDSRYSFDYDEKTKTLIVFTNSKVDAVFVDGIKKK — within 0.2 log units, 0.255
- HMTNISDYILEEYYKNVYPNDLNTKRIVIPNKYEEYAGKYTYITIARMVTYEHDAKKALKVLHQQAT — lower, -0.346
- HMTNKYSSLVIGTVKTIMEEDQYKNLMGPPLKKEIIKQVDKFTNALPIEFDQNDKDFYVKKILINL — lower, -0.299
- HMTNLKALRESKGVSQQTVADYLGITRQAYGNYETGKRQADYAALLRLAAFFGVSVDALLQP — within 0.2 log units, 0.102
- HMTNNDIIRRVRYLFNFSDKQVIELFKLANETVSIEHVSGWLKKEEDPTLIEISDRDLAVFLNGLII — lower, -1.65
- HMTNQEFNEVFKLLLAAYPNTKDKESVATIYFLTIANELTKKEFAEAVVKILKTRKSGFIPQPAEILEVAK — lower, -0.208
- HMTNSAGIERFLASGAIDGVGPAMARRIVEHFGTEALRIIESVPHRLREISGIGPKTAEKIASSYMRQ — lower, -0.618
- HMTNTDALINRAAKVVEEINPDKNTGRVSIDGDLWRAKSSSGELIEQNKQVIVISIESTIVTVKI — lower, -0.317
- HMTNTWNNIVERNDLFFKKFTNTPFNGKIETYWPNGNLKETGIITDGKKDNLWEYYYENGNPKEVEF — within 0.2 log units, -0.0781
- HMTNVFSIIGKKALVIKDIDPIHSSGQIKLNGEVWSAETENDEIIKEGSEVEVLKINGVKAIVKLV — within 0.2 log units, 0.149
- HMTNVIPKAMAPFNGSTIIADGIKNIKDHIDNLYITVGYKGATLSEHVINKGVSAVFNTTGKGNAWWVYN — within 0.2 log units, 0.00444
- HMTNVLSEQESKLLERMNKAGLNAEITVKKAAQILNLSESAARNVLNRLVGKGYLTVDTSRLPFLFQR — within 0.2 log units, 0.122
- HMTNVVSKNKAKEIAMNIINDTVLQGQTAATFKEIVKANGVYVVKIEIQGQEYTSYITKDGKIVFPYGVEV — lower, -0.661
- HMTNYSFIVNENFNNKRIDQVVANHYPKISRTKVNKIIKNNLLKLNGSTFNDPSAKVKLGDQIEFENL — within 0.2 log units, 0.00451
- HMTPAKQVSAKAERWIDQLGSSDWEKREEAAAELKKLGGAAKSALEKALKNADPEVASKAEELLEALES — within 0.2 log units, 0.213
- HMTPATVVIPKVAGQTVAEAKETLKNANFEIGEEKDESSDTVEEGRVIRTDPESGTNRKEGTKINLIVSS — within 0.2 log units, 0.0687
- HMTPFVINVDRHGAVIINEKTVDIDEAVVLARQERSQGKSILLAGDKKAPYEAIIRVLDALKQAG — lower, -0.464
- HMTPNATWQDDAQNLLRDLIQHQPVLVQISAAKRLRDQAEQISRITGGETVTREHVEAAGHALGMGVT — within 0.2 log units, -0.0443
- HMTPNRDDEHLQSLRDYYASNRRIPSLQRIAALLGFSSRSAAVKLMGRLADEGFVERTVDDDAWIPGSRFF — lower, -0.194
- HMTPVFGEEETVLQAAVRGIISDTDQWTMEAEAKSMLNQLGFSDYEEKMAHMSGGQKKRVALVNALLTP — lower, -0.555
- HMTQDFEPGGQVFSRGEWLTIIRVNKSNGAVSSVTTPNYSFLGYSGTMKVTPDRITDYKAPSAEEAAVAS — within 0.2 log units, -0.0277
- HMTQGRVTGDGVNVRSQPNTDSAILTRVSTGKVVELISLKDNWYNVVVNGTKGYIRADYVSPYDG — within 0.2 log units, 0.00816
- HMTQLPEVPVERGMVLEEVQSGWVGAVTRVEKSGGMHVVALEDRRGKSRSFRLGFGFLLEGQPIRLMPPAP — lower, -0.882
- HMTRAETPMAFIRAMVEAYTERGLDPNQALRKAQITPSQLKSTNARVTTLQMEWMSETAMREL — lower, -0.464
- HMTRDAQLAALERLMDDPSPVVRKAVLKGVQAAGTEGLLWLQQLSKNQTLGPYALALLTELR — within 0.2 log units, -0.0392
- HMTRNGTVTFFNHDKGYGFIKDVLTQESVFVHINSLSEPINEQNKVSFEIEMGPRGSNAINVKLI — lower, -1.86
- HMTRTEYMAQLEKYLKKLPHKEFQEAITFFNEYFDEAGPEKETAIMEELGSPKEAASELITNILNRHI — within 0.2 log units, -0.101
- HMTRTISKVAKELAINIETVRFYERRGLIEQPPKPELGYRHYPDETVNRIRFIKRAQELGFTLEEIANLLS — lower, -1.21
- HMTRVDALDQLAAIRFSSHIFAEDQDLRMVVVDGQRIGEGDIVRDEIRLEQITETGVIFEYQGERFPIDV — lower, -2.21
- HMTRYQHLAMLLEKRIAQGLYRNGERLPSVRSLSAEHGVSISTVQQAYYLLEQKQLIIPQSRSGYYVAPH — lower, -0.378
- HMTSEVPVGSNVRIRASTLAGERDFEGTMLPPAGEGLTTLKLVNGYNLSYPSKDVLDIEFLGGAGE — lower, -0.367
- HMTSHPTHTILDGKVHVFMRDGSPFWWGGFHFKGKYLRTSTKQKNLDSAKTIAQQWYFQKQTEIASGE — within 0.2 log units, -0.0801
- HMTSKVTVLAVNGRITVSGKEQDETVSVYDTGGRLLYQGESDVINVPRKAMYIVTVSRKSYKVIV — within 0.2 log units, 0.00912
